Laboratory results published in patent US20160369008A1 (Astellas, published 2016).
Each block holds one binder with its values, some of them ahead of it.

How the values were obtained:
[1] = molecular target: T1, human PAI-1 in complex with tPA (human, UniProt P05121 24-402; P00750 36-562); experiment: ELISA, tPA-PAI-1 complex on the plate
T1 construct: tPA was coated on the plate and active PAI-1 was captured on it; also called tPA-PAI-1 complex; Human tPA-PAI-1

latent human PAI-1 = molecular target: T2, latent human PAI-1 (human, UniProt P05121 24-402); experiment: ELISA, latent human PAI-1 on the plate
T2 construct: Same protein as active PAI-1 but in the latent conformation; also called recombinant latent human PAI-1; latent PAI-1

[2] = molecular target: T3, active human PAI-1 in complex with vitronectin (human, UniProt P05121 24-402; P04004 20-478); experiment: ELISA, VTN-PAI-1 complex on the plate; 100% set to the signal of MA56-A7C10 at its maximum concentration
T3 construct: Vitronectin was coated on the plate and active PAI-1 was captured on it; also called VTN-PAI-1 complex; VTN-PAI-1

[3] = molecular target: T4, human PAI-1 in complex with uPA (human, UniProt P05121 24-402; P00749 21-431, limits assumed); experiment: ELISA, uPA-PAI-1 complex on the plate
T4 construct: uPA was coated on the plate and active PAI-1 was captured on it; also called uPA-PAI-1 complex; Human uPA-PAI-1

[4] = molecular target: T3, active human PAI-1 in complex with …; experiment: ELISA, VTN-PAI-1 complex on the plate
Experimental: An HRP-labeled goat anti-mouse Ig antibody (Southern Biotech, 1010-05) for the detection of a test antibody having an Fe region of a mouse antibody and an HRP-labeled rabbit anti-human Ig antibody (Southern Biotech, 6145-05) for the detection of a test antibody having an Fc region of a human antibody are used as the detection antibody. After incubation at room temperature for 30 minutes, the plates were washed three times with a washing solution. A color developing solution contained in a peroxidase color development kit (Sumitomo Bakelite Co., Ltd.) was added at 100 μL/well, followed by allowing to stand at room temperature for about 15 minutes, 100 μL of a reaction stop solution contained in the color development kit was added, and then the OD450 value was measured using an EnVision counter (PerkinElmer Co., Ltd.).
For each plate, the test of each antibody was carried out in duplicate, and the average value was calculated. In connection with the calculation of a PAI-1 binding rate at each concentration of each antibody, the measurement value of a well to which 0.1% BSA-containing PBS had been added instead of an antibody was taken to be 0%, and the measurement value of the maximum concentration in each antibody was set to 100%. […] The calculated PAI-1 binding rate was analyzed to calculate EC50 values of the antibodies by four-parameter logistic curve regression.

[5] = molecular target: T5, active PAI-1 in human plasma (human, UniProt P05121 24-402); experiment: ELISA: inhibition of the capture of active PAI-1 of human plasma on immobilised uPA (Example 9)
T5 construct: Native protein in diluted plasma; also called human plasma-derived active PAI-1; active human PAI-1 in the plasma
Experimental: (§1) The evaluation of an inhibitory activity on active PAI-1 in human plasma was carried out according to the method of Example 5. The evaluation of an inhibitory activity on active PAI-1 in monkey plasma was carried out using monkey plasma instead of human plasma in the method described in Example 5. With regard to the monkey plasma, the plasma was diluted using 0.1% BSA-containing PBS, such that the monkey plasma was diluted 120-fold when a plasma-antibody mixture was prepared. For both of two evaluation systems, the final concentration of each antibody was used in a range from 300 ng/mL to 0.3 ng/mL (7-step dilution). As a calibration curve sample, recombinant active human PAI-1 (Molecular Innovations Inc., PAI-A) was used which had been diluted in 7 steps in a range from 3000 pg/mL to 3 pg/mL with 0.1% BSA-containing PBS.
(§2) The concentration of each active PAI-1 was calculated using a calibration curve. The test was carried out in duplicate for each antibody, and the average value was calculated. […] Each of the calculated active PAI-1 inhibitory rates was analyzed to calculate IC50 values of the antibodies by four-parameter logistic curve regression.

[6] = molecular target: T6, active PAI-1 in monkey plasma (cynomolgus monkey, UniProt G7P138 24-402); experiment: ELISA: inhibition of the capture of active PAI-1 of monkey plasma on immobilised uPA (Example 9)
T6 construct: Native protein in diluted plasma
Experimental: as §1, §2

[7] = molecular target: recombinant active human PAI-1 (human, UniProt P05121 24-402); experiment: cell-based or functional assay
[8] = molecular target: T5, active PAI-1 in human plasma; experiment: ELISA: inhibition of the capture of active PAI-1 of human plasma on immobilised uPA
Experimental: After the blocking agent in the assay plate was removed by reverse centrifugation, the pre-incubated plasma-antibody mixtures, the calibration curve sample, and the control sample were added at 100 μL/well to the assay plate which was then allowed to stand at room temperature for 30 minutes. The plate was washed three times with a washing solution (0.05% Tween-20-containing TBS), and anti-PAI-1 antibodies (Progen Biotechnik, MA-33H1F7) diluted 3,000-fold with a blocking agent (NACALAI TESQUE, INC., 03953-95) solution which had been diluted 20-fold in PBS were added thereto at 100 μL/well. […] An alkaline phosphatase substrate (Chemiluminescent AP; SurModics, APU4-0100-01) 5-fold diluted in a 0.1 mM magnesium chloride aqueous solution containing 2 mM Tris (pH 9.8) was added at 100 μL/well, and the signal value was measured using an EnVision counter (PerkinElmer Co., Ltd.).
as §2, with “of” for “of each”, “active human” for “active”, “The” for “Each of the”, “rate” for “rates”

[9] = molecular target: active monkey PAI-1 in complex with vitronectin (monkey); experiment: ELISA, VTN-monkey PAI-1 complex on the plate
Sequence of active monkey PAI-1 in complex with vitronectin (monkey) (P04004 20-478, one chain of several): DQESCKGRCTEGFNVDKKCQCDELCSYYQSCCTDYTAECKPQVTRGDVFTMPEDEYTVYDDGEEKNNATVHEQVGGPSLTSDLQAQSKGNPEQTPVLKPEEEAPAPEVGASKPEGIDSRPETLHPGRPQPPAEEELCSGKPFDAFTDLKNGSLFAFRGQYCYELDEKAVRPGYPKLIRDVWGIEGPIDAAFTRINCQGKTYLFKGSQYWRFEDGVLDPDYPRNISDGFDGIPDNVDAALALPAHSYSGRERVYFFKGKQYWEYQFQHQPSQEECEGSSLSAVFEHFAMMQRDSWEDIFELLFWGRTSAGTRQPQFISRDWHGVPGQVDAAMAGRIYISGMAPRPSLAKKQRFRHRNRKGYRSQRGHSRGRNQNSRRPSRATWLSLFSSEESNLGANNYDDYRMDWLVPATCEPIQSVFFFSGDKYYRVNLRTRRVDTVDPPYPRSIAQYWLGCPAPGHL

EC50 [1]: 0.0228 µg/mL
EC50 (latent human PAI-1): 0.64 µg/mL
EC50 [2]: 5.68 µg/mL
EC50 [3]: 0.0129 µg/mL
B1: MA-33B8 (antibody, V domains shown)
VH: not shown
VL: DIVMTQSPSSLAVSVGEKVTMSCKSSQSLLNIIKQKNCLAWYQQKPGQSPKLLIYWASTRESGVPDRFTGSGSGTDFTLTISSVKAEDLAVYYCQQYYSYPYTFGGGTKLEIK

EC50 [1]: 0.0117 µg/mL
EC50 [4]: 0.0143 µg/mL
EC50 (latent human PAI-1): 0.0136 µg/mL
EC50 [3]: 0.0127 µg/mL
B2: MA-33H1F7 (antibody, V domains shown)
VH: QVQLQQSGAEVVKPGASVKLACTASGFNIKDTYIHWVKQGPEQGLEWIGRIDPANGNTKYDSKFQDKATITADTSSNTAYLHLSSLTSEDTAVYYCVRGDYDYVYFDYWGQGTTVTVSS
VL: DIQMTQSPSSLSASLGDRVTISCRASQDISNFLDWYQQKPDGTVKLLIYYTSRLHSGVPSRFSGSGSGTDYSLTISKLEQEDIATYFCQQGNTFPPTFGGGTKLEIK

IC50 [5]: 0.0042 µg/mL
EC50 [4]: 0.0042 µg/mL
IC50 [6]: 0.037 µg/mL
EC50 value, taking the activity of uPA as an indicator (cleavage of a fluorogenic uPA substrate peptide) [7]: 0.0127 µg/mL
IC50 [8]: 0.006 µg/mL
EC50 [9]: 0.0036 µg/mL
B3: fully human HOT-1 (antibody, human IgG1, kappa, V domains shown)
VH: EVQLVESGGGVVRPGGSLRLSCAASGFTFDDHGMTWVRQAPGKGLEWVSGINWNGARTVYADSVKGRFTISRDNAKNSLYLHLISLRAEDTALYHCARDRGLGLFDYWGQGTLVTVSS
VL: DIQMTQSPSTLSASVGDRVTITCRASQSISSWLAWYQQKPGKVPKILIYKASRLESGVPSRISGSGSGTEFTLTISSLQPDDFATYYCQQYNGYSYTFGQGTKLEIKR
notes: Human Ig gamma1 / human kappa constant regions; also called fully human antibody of HOT-1; fully human HOT-1 antibody

IC50 [8]: 0.0113 µg/mL
B4: HOT-1 (chimeric antibody) (antibody, V domains shown)
VH: B3 VH
VL: B3 VL
